Laboratory results from US20020150536A1 (published 2002).

B1: Vitronectin (ligand, human, UniProt P04004 20-478, looked up)
chain: DQESCKGRCTEGFNVDKKCQCDELCSYYQSCCTDYTAECKPQVTRGDVFTMPEDEYTVYDDGEEKNNATVHEQVGGPSLTSDLQAQSKGNPEQTPVLKPEEEAPAPEVGASKPEGIDSRPETLHPGRPQPPAEEELCSGKPFDAFTDLKNGSLFAFRGQYCYELDEKAVRPGYPKLIRDVWGIEGPIDAAFTRINCQGKTYLFKGSQYWRFEDGVLDPDYPRNISDGFDGIPDNVDAALALPAHSYSGRERVYFFKGKQYWEYQFQHQPSQEECEGSSLSAVFEHFAMMQRDSWEDIFELLFWGRTSAGTRQPQFISRDWHGVPGQVDAAMAGRIYISGMAPRPSLAKKQRFRHRNRKGYRSQRGHSRGRNQNSRRPSRATWLSLFSSEESNLGANNYDDYRMDWLVPATCEPIQSVFFFSGDKYYRVNLRTRRVDTVDPPYPRSIAQYWLGCPAPGHL
notes: also called biotinylated vitronectin; unmodified vitronectin
B2: Fibrinogen (ligand)
chain 1: ADSGEGDFLAEGGGVRGPRVVERHQSACKDSDWPFCSDEDWNYKCPSGCRMKGLIDEVNQDFTNRINKLKNSLFEYQKNNKDSHSLTTNIMEILRGDFSSANNRDNTYNRVSEDLRSRIEVLKRKVIEKVQHIQLLQKNVRAQLVDMKRLEVDIDIKIRSCRGSCSRALAREVDLKDYEDQQKQLEQVIAKDLLPSRDRQHLPLIKMKPVPDLVPGNFKSQLQKVPPEWKALTDMPQMRMELERPGGNEITRGGSTSYGTGSETESPRNPSSAGSWNSGSSGPGSTGNRNPGSSGTGGTATWKPGSSGPGSTGSWNSGSSGTGSTGNQNPGSPRPGSTGTWNPGSSERGSAGHWTSESSVSGSTGQWHSESGSFRPDSPGSGNARPNNPDWGTFEEVSGNVSPGTRREYHTEKLVTSKGDKELRTGKEKVTSGSTTTTRRSCSKTVTKTVIGPDGHKEVTKEVVTSEDGSDCPEAMDLGTLSGIGTLDGFRHRHPDEAAFFDTASTGKTFPGFFSPMLGEFVSETESRGSESGIFTNTKESSSHHPGIAEFPSRGKSSSYSKQFTSSTSYNRGDSTFESKSYKMADEAGSEADHEGTHSTKRGHAKSRPV
chain 2: QGVNDNEEGFFSARGHRPLDKKREEAPSLRPAPPPISGGGYRARPAKAAATQKKVERKAPDAGGCLHADPDLGVLCPTGCQLQEALLQQERPIRNSVDELNNNVEAVSQTSSSSFQYMYLLKDLWQKRQKQVKDNENVVNEYSSELEKHQLYIDETVNSNIPTNLRVLRSILENLRSKIQKLESDVSAQMEYCRTPCTVSCNIPVVSGKECEEIIRKGGETSEMYLIQPDSSVKPYRVYCDMNTENGGWTVIQNRQDGSVDFGRKWDPYKQGFGNVATNTDGKNYCGLPGEYWLGNDKISQLTRMGPTELLIEMEDWKGDKVKAHYGGFTVQNEANKYQISVNKYRGTAGNALMDGASQLMGENRTMTIHNGMFFSTYDRDNDGWLTSDPRKQCSKEDGGGWWYNRCHAANPNGRYYWGGQYTWDMAKHGTDDGVVWMNWKGSWYSMRKMSMKIRPFFPQQ
chain 3: YVATRDNCCILDERFGSYCPTTCGIADFLSTYQTKVDKDLQSLEDILHQVENKTSEVKQLIKAIQLTYNPDESSKPNMIDAATLKSRKMLEEIMKYEASILTHDSSIRYLQEIYNSNNQKIVNLKEKVAQLEAQCQEPCKDTVQIHDITGKDCQDIANKGAKQSGLYFIKPLKANQQFLVYCEIDGSGNGWTVFQKRLDGSVDFKKNWIQYKEGFGHLSPTGTTEFWLGNEKIHLISTQSAIPYALRVELEDWNGRTSTADYAMFKVGPEADKYRLTYAYFAGGDAGDAFDGFDFGDDPSDKFFTSHNGMQFSTWDNDNDKFEGNCAEQDGSGWWMNKCHAGHLNGVYYQGGTYSKASTPNGYDNGIIWATWKTRWYSMKKTTMKIIPFNRLTIGEGQQHHLGGAKQAGDV
notes: also called biotinylated fibrinogen; unmodified fibrinogen

Key:
αvβ3 integrin [1] = biological target: T1, αvβ3 integrin (human, UniProt P06756 31-1048; P05106 27-788); assay: competition ELISA, displacement of biotinylated vitronectin (10 nM) from immobilized αvβ3 (FIG. 4A)
T1 construct: Native detergent-extracted heterodimer, adsorbed to microtiter wells; also called integrin αvβ3; purified human αvβ3
Procedure: (§1) Briefly, proteins were dialyzed into 0.1 M NaHCO₃, 0.1 M NaCl. N-hydroxysuccinimido-LC-biotin (Pierce) was dissolved at 1 mg/mL in DMSO and added to the protein at a ratio of 0.1 mg biotin per 1 mg protein. The reaction was allowed to rotate at room temperature for 2 hours. Biotinylated proteins were dialyzed into phosphate-buffered saline and their concentrations determined by absorbance at 280 nm. […] Absorbance was read at 405 nm.

αvβ3 integrin [2] = biological target: T1, αvβ3 integrin; assay: competition ELISA, displacement of biotinylated fibrinogen (6 nM) from immobilized αvβ3 (FIG. 4B)
Procedure: as §1

αIIbβ3 = biological target: T2, αIIbβ3 (UniProt P08514 32-1039; P05106 27-788); assay: competition ELISA, displacement of biotinylated fibrinogen (6 nM) from immobilized αIIbβ3 (FIG. 4C)
T2 construct: Bought purified protein, adsorbed to microtiter wells; also called integrin αIIbβ3; GPIIbIIIa
Procedure: An estimate of the maximum absorbance value was determined for each ligand/integrin pair in the absence of competitor. The baseline absorbance value was determined by adding 5 mM EDTA to the incubation buffer.
as §1

T1 sequence (P06756 31-1048, form in doubt, chain 1 of 2): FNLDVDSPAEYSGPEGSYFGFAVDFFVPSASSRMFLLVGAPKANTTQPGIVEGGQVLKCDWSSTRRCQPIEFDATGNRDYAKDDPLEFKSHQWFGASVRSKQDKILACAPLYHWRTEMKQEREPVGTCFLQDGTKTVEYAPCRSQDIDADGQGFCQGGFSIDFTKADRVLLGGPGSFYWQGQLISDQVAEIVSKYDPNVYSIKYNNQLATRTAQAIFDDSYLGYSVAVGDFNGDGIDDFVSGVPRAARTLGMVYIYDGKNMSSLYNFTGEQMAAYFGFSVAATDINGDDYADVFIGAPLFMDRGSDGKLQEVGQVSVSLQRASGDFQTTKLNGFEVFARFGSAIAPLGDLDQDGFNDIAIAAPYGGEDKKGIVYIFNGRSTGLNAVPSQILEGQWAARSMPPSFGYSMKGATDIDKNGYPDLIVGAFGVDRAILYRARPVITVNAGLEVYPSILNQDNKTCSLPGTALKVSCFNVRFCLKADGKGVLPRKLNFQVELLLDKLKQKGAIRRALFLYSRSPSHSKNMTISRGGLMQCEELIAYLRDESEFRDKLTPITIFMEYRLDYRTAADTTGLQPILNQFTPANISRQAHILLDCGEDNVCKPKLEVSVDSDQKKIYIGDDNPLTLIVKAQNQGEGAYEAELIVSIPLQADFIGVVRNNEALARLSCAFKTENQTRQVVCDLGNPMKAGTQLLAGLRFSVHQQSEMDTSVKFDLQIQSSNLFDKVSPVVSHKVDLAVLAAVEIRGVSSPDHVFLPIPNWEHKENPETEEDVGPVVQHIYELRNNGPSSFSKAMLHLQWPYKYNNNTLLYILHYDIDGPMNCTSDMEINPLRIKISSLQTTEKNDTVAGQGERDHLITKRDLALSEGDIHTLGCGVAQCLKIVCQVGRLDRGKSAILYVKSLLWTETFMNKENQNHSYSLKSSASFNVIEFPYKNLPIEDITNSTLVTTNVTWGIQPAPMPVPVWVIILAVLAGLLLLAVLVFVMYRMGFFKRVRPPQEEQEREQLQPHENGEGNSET
T1 sequence (P05106 27-788, form in doubt, chain 2 of 2): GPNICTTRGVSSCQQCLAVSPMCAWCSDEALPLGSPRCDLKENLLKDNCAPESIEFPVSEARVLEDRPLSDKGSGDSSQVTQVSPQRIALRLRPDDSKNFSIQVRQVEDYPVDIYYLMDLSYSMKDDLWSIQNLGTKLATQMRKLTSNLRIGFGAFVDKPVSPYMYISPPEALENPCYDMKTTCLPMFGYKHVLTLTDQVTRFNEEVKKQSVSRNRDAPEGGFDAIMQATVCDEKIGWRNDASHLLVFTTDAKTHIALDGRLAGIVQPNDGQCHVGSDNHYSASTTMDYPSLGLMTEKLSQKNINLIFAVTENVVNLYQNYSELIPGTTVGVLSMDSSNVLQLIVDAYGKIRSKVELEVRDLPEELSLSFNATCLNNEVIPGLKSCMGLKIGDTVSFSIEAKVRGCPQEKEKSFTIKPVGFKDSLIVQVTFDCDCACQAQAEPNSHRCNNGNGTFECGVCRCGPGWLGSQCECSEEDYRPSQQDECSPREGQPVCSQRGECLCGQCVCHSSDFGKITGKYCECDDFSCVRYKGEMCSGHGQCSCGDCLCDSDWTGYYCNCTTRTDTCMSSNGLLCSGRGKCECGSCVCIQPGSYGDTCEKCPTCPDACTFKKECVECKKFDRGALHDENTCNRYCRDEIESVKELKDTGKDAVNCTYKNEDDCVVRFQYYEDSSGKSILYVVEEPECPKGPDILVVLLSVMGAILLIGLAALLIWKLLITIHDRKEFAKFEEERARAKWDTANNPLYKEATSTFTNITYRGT

Row | Binder | IC50 (αvβ3 integrin [1]) | IC50 (αvβ3 integrin [2]) | IC50 (αIIbβ3)
1 | B1 | 59 nM |  | 
2 | B2 |  | 43 nM | 15 nM
